Results: US7884067B2, “Peptides derived from cadherin and methods of use thereof” (Mount Sinai School of Medicine of New York University, priority 2001, dated 2011)

Key:
N-cadherin = test: In vitro ε-cleavage assay, membranes from mouse brain neuronal cultures; assay type: biochemical; details: PS1+/− neurons, L-685,458 (0.5 μM)
Description: Primary, neuronal cultures. Mixed hippocampal and cortical neuronal cultures were prepared from E18 mouse or rat brains as described by Banker and Goslin (1991) Culturing Nerves Cells, London, MIT Press. Neurons were maintained 10 days in vitro in glial conditioned MEM containing 2% glucose and N2 supplements as described by Bottenstein and Sato (1979) Proc. Natl. Acad. Sci. USA 76: 514-517, and then were stimulated for 15 minutes with Mg2+-free Hanks' balanced salt solution (HBSS, Sigma) containing KCl (50 mM), L-Glutamate ([…]) or NMDA ([…]). D-APV ([…]) was applied 15 minutes before stimulation.
In vitro γ-secretase-like ε-cleavage assay. Cells were washed in PBS, resuspended in 1 ml of 4° C. hypotonic buffer (10 mM MOPS, pH 7.0, 10 mM KCl) and homogenized on ice. A post-nuclear supernatant was prepared by centrifugation at 1000×g for 15 minutes at 4° C. Crude membranes were isolated from the post-nuclear supernatant by centrifugation at 16,000×g for 40 minutes at 4° C. The membranes were then resuspended in […] of assay buffer (150 mM sodium citrate, pH 6.4, 1× Complete protease inhibitor cocktail), and incubated at 37° C. for 2 hours. Samples were either analyzed directly by WB or separated into pellet (P100) and supernatant (S100) fractions by ultracentrifugation for 1 hour at 100,000×g at 4° C. The S100 and P100 fractions were then analyzed by WB.

CBP = molecular target: T1, CBP (Mus musculus, UniProt P45481); test: Co-immunoprecipitation in pN-Cad/CTF2-transfected L cells; assay type: binding; details: FIG. 11B
T1 construct: a process that relies on endogenous CBP and CREB; endogenous in cells; host or cells: L cells transfected with vector or pN-Cad/CTF2
Description: Immunoprecipitations (IPs), immunoblotting and immunofluorescence. IPs were performed as described by Marambaud et al. (2002) EMBO J. 21: 1948-1956 in 4° C. HEPES buffer (25 mM HEPES, pH 7.4, 150 mM NaCl, 1× Complete protease inhibitor cocktail, Roche) containing 0.5% Nonidet P40 (NP40). For western blot (WB) analysis, cells were solubilized in 4° C. RIPA buffer (50 mM Tris-HCl, pH 8, 150 mM NaCl, 0.1% SDS, 1% NP-40, 0.5% sodium deoxycholate, 1× Complete protease inhibitor cocktail) as described by Marambaud et al. (2002). Immunofluorescence was performed as described by Georgakopoulos et al. (1999) with the following modifications: to visualize nuclei, cells were treated for 5 minutes with 4′,6-diamidino-2-phenylndole (DAPI, 1:5000; Sigma). Fluorescence microscopy and digital image acquisition were carried out using an Axioskop2 microscope (Zeizz).
To determine how N-Cad/CTF2 affects CREB-mediated transcription, the following experiments were performed. L cells transfected either with vector (vector) or pN-Cad/CTF2 (N-Cad/CTF2) plasmids were fractionated into nuclear and cytosolic fractions, and probed on WBs with anti-CBP (FIG. 11A, panel a), anti-N-cadherin (FIG. 11A, panel b), anti-β-tubulin (FIG. 11A, panel c) or anti-phosphorylated CREB (P-CREB; FIG. 11A, panel d) antibodies. […] L cells transiently transfected with pN-Cad/CTF2 were analyzed by immunofluorescence staining. […]

CHOP-response elements = test: CHOP-mediated transactivation (luciferase) in L cells; assay type: cell-based; details: L cells transfected with pN-Cad/CTF2, FIG. 9A
Description: Transactivation assays. CRE-dependent transactivation was measured in the absence or presence of overexpression of PKA (pFC-PKA, Stratagene) by cotransfection with CRE-luciferase reporter plasmid (pCRE-Luc, Stratagene) and pSV-β-galactosidase vector (Promega) to evaluate transfection efficiency. CHOP-mediated transactivation was measured by cotransfection with the Gal4-fusion trans-activator plasmids (pFA-CHOP and pFR-Luc, Stratagene). 30 hours after transfection, luciferase and β-galactosidase activities were determined following manufacturer's instructions using a TD-20/20 luminometer (Turner Designs) and a DU-64 spectrophotometer (Beckman). Values were normalized to β-galactosidase activity and protein concentration.
Stimulation of synaptic NMDA receptor leads to phosphorylation of transcription factor CREB that then recruits transcription co-activator CBP, a process ultimately leading to activation of CREB-mediated gene expression (Impey and Goodman (2001) Sci STKE, PE1). […] CRE-dependent transactivation was measured in the absence (−) or presence (+) of […] PKA (pFC-PKA) using CRE-luciferase reporter plasmid (pCRE-Luc) and pSV-β-galactosidase vector. CHOP-mediated transactivation was measured by […] with the Gal4-fusion trans-activator plasmids (pFA-CHOP and pFR-Luc) and pSV-β-galactosidase vector. […]

T1 sequence (P45481 whole entry): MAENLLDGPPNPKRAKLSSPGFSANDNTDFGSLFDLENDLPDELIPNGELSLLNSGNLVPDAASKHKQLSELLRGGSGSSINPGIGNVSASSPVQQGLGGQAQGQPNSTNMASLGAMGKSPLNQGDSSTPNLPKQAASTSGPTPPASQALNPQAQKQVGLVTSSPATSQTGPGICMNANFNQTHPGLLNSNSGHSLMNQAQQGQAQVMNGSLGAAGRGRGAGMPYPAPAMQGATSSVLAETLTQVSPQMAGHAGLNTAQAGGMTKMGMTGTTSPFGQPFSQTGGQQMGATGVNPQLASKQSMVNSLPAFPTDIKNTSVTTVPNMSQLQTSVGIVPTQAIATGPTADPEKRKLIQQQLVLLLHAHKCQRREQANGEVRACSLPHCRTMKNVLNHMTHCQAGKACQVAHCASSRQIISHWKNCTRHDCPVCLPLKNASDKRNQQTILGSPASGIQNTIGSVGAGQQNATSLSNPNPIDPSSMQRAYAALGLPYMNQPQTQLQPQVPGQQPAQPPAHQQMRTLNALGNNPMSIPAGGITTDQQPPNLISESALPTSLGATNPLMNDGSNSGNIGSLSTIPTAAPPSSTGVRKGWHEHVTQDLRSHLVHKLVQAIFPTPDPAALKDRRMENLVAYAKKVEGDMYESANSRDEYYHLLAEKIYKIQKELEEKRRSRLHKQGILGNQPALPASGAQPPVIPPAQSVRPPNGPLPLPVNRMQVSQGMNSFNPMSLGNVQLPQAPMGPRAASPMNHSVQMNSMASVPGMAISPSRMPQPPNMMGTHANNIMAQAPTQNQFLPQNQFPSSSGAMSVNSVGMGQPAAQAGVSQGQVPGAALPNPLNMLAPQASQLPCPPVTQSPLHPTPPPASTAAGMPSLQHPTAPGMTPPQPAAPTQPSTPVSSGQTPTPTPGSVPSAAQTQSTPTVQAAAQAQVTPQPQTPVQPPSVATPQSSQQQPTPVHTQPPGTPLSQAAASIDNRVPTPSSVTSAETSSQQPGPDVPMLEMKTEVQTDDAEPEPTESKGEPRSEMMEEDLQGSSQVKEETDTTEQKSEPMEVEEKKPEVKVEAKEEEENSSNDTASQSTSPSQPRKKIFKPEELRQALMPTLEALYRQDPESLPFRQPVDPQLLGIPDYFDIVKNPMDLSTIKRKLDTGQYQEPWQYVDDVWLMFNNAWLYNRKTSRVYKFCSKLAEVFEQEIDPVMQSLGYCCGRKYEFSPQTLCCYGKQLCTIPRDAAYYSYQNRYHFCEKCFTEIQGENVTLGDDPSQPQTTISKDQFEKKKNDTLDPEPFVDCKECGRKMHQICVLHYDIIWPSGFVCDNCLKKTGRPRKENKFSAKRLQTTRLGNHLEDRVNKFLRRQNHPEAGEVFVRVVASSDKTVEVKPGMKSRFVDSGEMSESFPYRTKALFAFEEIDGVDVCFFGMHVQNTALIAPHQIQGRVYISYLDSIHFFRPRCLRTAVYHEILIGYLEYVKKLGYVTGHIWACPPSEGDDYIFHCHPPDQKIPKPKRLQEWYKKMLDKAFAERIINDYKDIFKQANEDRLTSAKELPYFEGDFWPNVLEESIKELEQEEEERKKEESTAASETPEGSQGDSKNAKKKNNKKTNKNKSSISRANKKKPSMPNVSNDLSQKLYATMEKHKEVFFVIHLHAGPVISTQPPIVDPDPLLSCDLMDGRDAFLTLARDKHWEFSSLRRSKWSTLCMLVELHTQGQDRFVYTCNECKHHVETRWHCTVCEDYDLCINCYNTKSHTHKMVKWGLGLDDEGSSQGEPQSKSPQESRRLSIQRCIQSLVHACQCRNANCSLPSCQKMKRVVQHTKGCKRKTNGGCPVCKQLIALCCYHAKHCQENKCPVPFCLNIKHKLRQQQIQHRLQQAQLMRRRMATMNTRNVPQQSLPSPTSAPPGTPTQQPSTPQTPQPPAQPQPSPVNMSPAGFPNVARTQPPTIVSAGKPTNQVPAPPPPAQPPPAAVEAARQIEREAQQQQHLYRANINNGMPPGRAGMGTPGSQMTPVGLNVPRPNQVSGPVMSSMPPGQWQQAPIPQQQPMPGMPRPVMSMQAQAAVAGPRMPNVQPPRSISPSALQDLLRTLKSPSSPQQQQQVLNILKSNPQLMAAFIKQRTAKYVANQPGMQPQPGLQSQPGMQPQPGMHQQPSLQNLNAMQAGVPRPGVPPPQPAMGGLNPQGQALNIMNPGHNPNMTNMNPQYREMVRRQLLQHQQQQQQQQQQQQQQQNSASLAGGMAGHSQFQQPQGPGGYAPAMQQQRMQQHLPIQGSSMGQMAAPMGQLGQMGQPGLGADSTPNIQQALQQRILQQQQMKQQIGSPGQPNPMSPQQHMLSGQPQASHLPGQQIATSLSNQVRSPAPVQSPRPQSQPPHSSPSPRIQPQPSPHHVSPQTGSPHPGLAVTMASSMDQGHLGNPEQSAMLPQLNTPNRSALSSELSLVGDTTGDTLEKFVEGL

| Molecule | N-Cad/CTF2 peptide (N-cadherin) | co-immunoprecipitation of N-Cad/CTF2 with CBP (CBP) | transactivation by CHOP-response elements (CHOP-response elements) |
| --- | --- | --- | --- |
| CC(C)C[C@H](NC(=O)[C@H](Cc1ccccc1)C[C@@H](O)[C@H](Cc1ccccc1)NC(=O)OC(C)(C)C)C(=O)N[C@@H](Cc1ccccc1)C(N)=O [L-685,458] | inhibited | – | – |
| N-Cad/CTF2: chicken cytoplasmic domain of N-cadherin (N-Cad/CTF2) inserted into vector pECE, expressed in L cells (protein) KRRDKERQAKQLLIDPEDDVRDNILKYDEEGGGEEDQDYDLSQLQQPDTVEPDAIKPVGIRRLDERPIHAEPQYPVRSAAPHPGDIGDFINEGLKAADNDPTAPPYDSLLVFDYEGSGSTAGSLSSLNSSSSGGEQDYDYLNDWGPRFKKLADMYGGGDD | – | co-immunoprecipitates with CBP | not affected |
